Test results taken from the nanobody polyreactivity screen of Harvey et al. (2022).

Assay: yeast display, Sf9 membrane polyspecificity reagent, FACS + sequencing; frameworks hold sequencing errors
Procedure, shortened: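 Galactose-induced (36–48 hours) yeast carrying a synthetic nanobody display library were exposed to 10% biotinylated, detergent-solubilized Sf9 membrane reagent at 4 °C for 1 hour. FACS followed streptavidin microbead enrichment, using low and high (top ~1%) gates for expression (anti-HA) and reagent binding (streptavidin). Colony PCR, MiSeq 2 × 250 sequencing and CDR-length filtering followed. Labels for polyreactivity reflect the gate of origin.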

| Sequence | polyreactivity (PSR sort gate) |
| --- | --- |
| QVQLVESGGGLVQAGGSLRLSCAASGRTYTFNTMGLSRQAPGKEREWVAAIDGDGTTNYADSVKGRFTISRDNAKNTVYLQMNSLKPEDTAVYYCAADFLYSFWYEPTFDYWGQGTQVTVSS | low polyreactivity |
| QVQLVESGGGLVQAGGSLRLSCAASGRTYVNTMGWYRQAPGKERELVAAISWSGGRTRYADSVKGRFTISRDNAKNTVYLQMNSLKPEDTAVYYCAKRTYSRKFRGAYNYWGQGTQVTVSS | high polyreactivity |
| QVQLVESGGGLVQAGGSLRLSCAASGRTYVVYAMGWYRQAPGKERELVARFRWRDVSTYYADSVKGRFTISRDNAKNTVYLQMNSLKPEDSAVYYCAARSYTGGGRLYYWGQGTQVTVSS | high polyreactivity |
| QVQLVESGGGLVQAGGSLRLSCAASGRTYYYNAMGWYREAPGKERELVARISQRTGSTYYADSVKGRFTISRDNAKNTVYLQMNSLKPEDTAVYYCAASSQTRQWTNDYWGQGTQVTVSS | high polyreactivity |
| QVQLVESGGGLVQAGGSLRLSCAASGSICAYYAMGGYRQAPGTERELVAAISQSGGSTYYADSVKGRVTISRDNAKNTVYLQMNSLKPEDTADYYCAARFRYGYSGYRYDYWGQGTQVNVSS | high polyreactivity |
| QVQLVESGGGLVQAGGSLRLSCAASGSICVDNAMGWYRQAPGKERELVAVITLRSGSTNYADSVKGRFTISRDNAKNTVYLQMNSLKPEDTAVYYCAADDTYHDYQRDTDDDYWGQGTQVTVSS | low polyreactivity |
| QVQLVESGGGLVQAGGSLRLSCAASGSICYSYAMGWYRQAPWKEREFVATISDSSGSTYYADSVKGRFTISRDYATNTVYLQMNSLKPEDSAVYYCATTDSYGYYGYGYWGQGTQVTVSS | low polyreactivity |
| QVQLVESGGGLVQAGGSLRLSCAASGSIERNAMGWYRQAPGKERELVAAISRSGTRTYYADSVKGRFTISRDNAKNTVYLQMNSLKPEDTAVYYCAKASAQWVQFDYWGQGTQVTVSS | high polyreactivity |
| QVQLVESGGGLVQAGGSLRLSCAASGSIFAAYAMGWYRQAPGKERELVAVINSRGGITSYADSVKGRFTISRDNAKNTVYLQMNSLKPEDTAVYYCAARPWYSWRYDYWGQGTQVTVSS | high polyreactivity |
| QVQLVESGGGLVQAGGSLRLSCAASGSIFAAYTMGWYRQAPGKERELVAAISVSTVSTNYADSVQGRFTISRDNAKNTVFLQMNRLKPEDTAVYYCNADATDSYPEKDEHDSWGQGTEVTVSS | low polyreactivity |
| QVQLVESGGGLVQAGGSLRLSCAASGSIFAAYTMGWYRQAPGKQRELVAAISSGTRTNYADSVKGRFTISRDNAKNTVYLQLNSLKPEDTAVYYWNADVSALWWPEEWYNASEFDYWGQGTQVTVSS | low polyreactivity |
| QVQLVESGGGLVQAGGSLRLSCAASGSIFADNAMGWDRQAPGKERELVAAISRTGGSTYYADSVKGRFTISRDNSKNTVYLQMNSLKPEDTAVYYCAADNGYGRYRRYYYWGQGTQVTVSS | high polyreactivity |
| QVQLVESGGGLVQAGGSLRLSCAASGSIFADNGMGWYRQAPGKERELVAAINSGSTYADSVKGRFTISRDNAKNTVYLQMNSLKPEDTAVYYCNADGVTSGRVDYWGQGTQVTVSS | low polyreactivity |
| QVQLVESGGGLVQAGGSLRLSCAASGSIFADYAMGWYRQAPGKERELVAAITASGGTTYYADSVKGRFTISRDNAKNTVYVQMNSLKPEDTAVYYCNAGNRTFLYDRDDYWGQGTQVSVSS | high polyreactivity |
| QVQLVESGGGLVQAGGSLRLSCAASGSIFADYTMGWYRQAPGKERELVAAISSDDSTYYADSVKGRFTISRDNAKNTVYLQMNSLKPEDTAVYYCNDDGSIGPEEYWGQGTQVTVSS | low polyreactivity |
| QVQLVESGGGLVQAGGSLRLSCAASGSIFAFNGMGGYRPAPGKERELVAGITISDSTNYADSVKGRFTISRDNAKNTVSLQMNSLKPEVTAVYYCNADYEQYVYWYWFIKYDYWGQVTQVTVSS | low polyreactivity |
| QVQLVESGGGLVQAGGSLRLSCAASGSIFAFNVMGWYRQAPGKERELVAAITWGGRTYYADSVKGRFTISRDNAKNTVYLQMNSLKPEDTAVYYCAAYPLYRVSHGYEYNYWGQGTQVTVSS | high polyreactivity |
| QVQLVESGGGLVQAGGSLRLSCAASGSIFAGYAMGWYRQAPGKERELVAAISSSGGRTYYADSVKGRFTISRDNAKNTVYLQMNSLKPVDTAVYYCAVSTYEEEYWGQGTQVTVSS | high polyreactivity |
| QVQLVESGGGLVQAGGSLRLSCAASGSIFAHNAMGWSRQAPGKESEMVAAISSGGSTNYADSVKGRFTISRDNAKNTVYLQMNSLKPEDTAVDYCAKSIDGWYWRRRRYDYWGQGTQVTVSS | low polyreactivity |
| QVQLVESGGGLVQAGGSLRLSCAASGSIFAHYTMGWYRQAPGKERELVASISYRATRTHYADSVKGRFTISRDNAKNTVYLQMNSLKPEDTAVYYCNKGGYPGLQWGNYPPYRSKDDYWGQGTQVTVSS | high polyreactivity |
| QVQLVESGGGLVQAGGSLRLSCAASGSIFAIYAMGWYRQAPGKERELVAAISYGDGSTYYADSVKGRFTISRDNAKNTVYLQMNSLKPEDTAVYYCAVGTRVKYDYWGQGTQVTVSS | high polyreactivity |
| QVQLVESGGGLVQAGGSLRLSCAASGSIFAKYAMGWYRQAPGKDREFVAAIRASGGRTYYADSVKGRFTISRDTAKNTVYLQMNSLKPEDSAVYYCNARKYLIPKMDYWGQGTQVTVSS | high polyreactivity |

| Sequence | polyreactivity (PSR sort gate) |
| --- | --- |
| QVQLVESGGGLVQAGGSLRLSCAASGSIFAKYAMGWYRQAPGKEREFVAAIRASGGRTYYADSVKGRFTISRDNAKNTVYLKMNSLKPEDTAFYYCASDVSYRAGFDYWGQGTQVTVSS | high polyreactivity |
| QVQLVESGGGLVQAGGSLRLSCAASGSIFAPNAMGWYRQAPGKERELVAAITYGGGRTYYADSVKGRFTISRDNAKNTVYLQMNSLNPEDTAVYYCNALFSVRGYTWRSAAQDMDYWGQGTQVTVSS | high polyreactivity |
| QVQLVESGGGLVQAGGSLRLSCAASGSIFAPYAMGWYRQAPGKEREFVATITWGGGRTYYADSVKGRFTISRDNAKNTVYLQMNSLKPEDTAVYYCAAAIYYGSLGLFDYWGQGTQVTVSS | high polyreactivity |
| QVQLVESGGGLVQAGGSLRLSCAASGSIFAPYAMGWYRQAPGKERELVAAISWSGDSTYYADSVKGRFTISRDNAKNTVYLQMNSLKPEDTAVSYCAAAGGFDYDYWGQATQVTVSS | low polyreactivity |
| QVQLVESGGGLVQAGGSLRLSCAASGSIFAQYAMGWYRQAPGKERELVAAISRTGGGTYYADSVKGRFTISRDNAKNTVYLQMNSLKPEDTAVYYCAAVPGLFYLPYDYWGQGTQVTVSS | low polyreactivity |
| QVQLVESGGGLVQAGGSLRLSCAASGSIFAQYAMGWYRQAPGKERELVAAITRGGGNTYYADTVKGRFTISRDNAKNTVYLQMNSLKPEDTAVYYCAANRRDGYVYWGQGTQVTVSS | low polyreactivity |
| QVQLVESGGGLVQAGGSLRLSCAASGSIFARYALGWYRQAPGKERELVDAITRSGVSTYSADSVKGRFTISRDNAKNTVYLQMNSLKPEDTAVYYCNADYPIRSSPYGYYYWGQGTQVTVSS | high polyreactivity |
| QVQLVESGGGLVQAGGSLRLSCAASGSIFASNTMGWSRQATGKERELVAGITKIGSSTYYADSVKGRFTISRDNAKNTVYLQMNSLKPEDTEVYYCNAYGPNIYSSRYDYWGQGTQVTVSS | low polyreactivity |
| QVQLVESGGGLVQAGGSLRLSCAASGSIFASYAMGWYRQAPGKERELVAAISDGGGRTYYADSVKGRFTISRDNAKNTVYLQMNSLKPEDTAVYYCAAYAVYTYRRARGYWGQGTQVTVSS | high polyreactivity |
| QVQLVESGGGLVQAGGSLRLSCAASGSIFASYAMGWYRQAPGKERELVAAISQNGSRTYYAVSVKGRFTISRDNAKYTVYLQMNSLKPEDTAVYYCAVLSRQYFRYGYDYWGQGTQVTVSS | high polyreactivity |
| QVQLVESGGGLVQAGGSLRLSCAASGSIFASYAMGWYRQAPGKERELVAAISRSGTSTRYADSVKGRFTISRDNAKNTVYLQMNSLKPEDTAVYYCAARWYVFFRKYDYWGQGTQVTVSS | high polyreactivity |
| QVQLVESGGGLVQAGGSLRLSCAASGSIFATYAMGWYIQAPGKERELVASITTDGSTHYADSVKGRFTISRDNAKNTVYLQMNSLKPEDTAVYYCNTETGPSPVPVYDTEFDSWGQGTQVTVSS | low polyreactivity |
| QVQLVESGGGLVQAGGSLRLSCAASGSIFAVNAMGLYRQAPGKERELVATITGRDGSTYYADSVKGRFTISRDNAKNTVYLQMNRLKPEDTAVYYCTARRKRTYDYWGQGTQVTVSS | high polyreactivity |
| QVQLVESGGGLVQAGGSLRLSCAASGSIFAWYAMGRYRQAPGKEMELVAAIRYRGDGTYYADSVKGRFTISRDNAKNTVYLQMNSLKPEDTAVYYCAADSRVYRGGYIYRYGYWGQGTQVTVSS | low polyreactivity |
| QVQLVESGGGLVQAGGSLRLSCAASGSIFAYNAMGWYRQAPGKERELVAAITGSGGSTDYADSVKGRFTISRDNAKNTVYLQMNSLKPEDTAVYYCNADWWSEWKLYDYWGQGTQVTVSS | low polyreactivity |
| QVQLVESGGGLVQAGGSLRLSCAASGSIFAYNAMGWYRQAPGKERELVAGISSRGGRTYYADSVKGRFTISRDNAKNTVYLQKNSLKPEDTAVYNCNKRSVPGTYYPTPVRYKYDYWGQGTQVTVSS | high polyreactivity |
| QVQLVESGGGLVQAGGSLRLSCAASGSIFAYYAMGWYRQAPGKERDLVAAISYSGDGTYYADSVKGRFTISRDNAKNTVYLQMNSLKREDTAVYYCATQIYPLDFYQGDWNDYWGQGTQVTVSS | low polyreactivity |
| QVQLVESGGGLVQAGGSLRLSCAASGSIFAYYAMGWYRQAPGKERELVAGIRISGGRTYYADSVKGRFTISRDTAKNTVYLQMNSLKPEDTAVYYCNARWRGFRTGAGDYWGQGTQVTVSS | high polyreactivity |
| QVQLVESGGGLVQAGGSLRLSCAASGSIFAYYVMGWYRPAPGKERELVAAITRAGSTYYADSVKGRFTISRDNGKNTVYLQMNSLKPEVSAVYYCDARVGYYFRPESYYWGQGTKVTVSS | high polyreactivity |
| QVQLVESGGGLVQAGGSLRLSCAASGSIFCVYAMGWYRQAPGKERELVAAISQSGGRTYYADSVKGRFTISRDNAKNTVYLQMNSLKPEDTAVYYCAAVVFNVYRRYWGQGTQVTVSS | high polyreactivity |
| QVQLVESGGGLVQAGGSLRLSCAASGSIFCYALGWNRQAPGKKRELVAAITGRCTSTYADSVKGRFTISLDNAKNTVYLQTNSLKPEDTAVYYCGPVGWFAEFLFSDIYGYYWGQGTQVTVSS | low polyreactivity |
